Data published in paper PMC11093223, “Cargo selective vesicle tethering: The structural basis for binding of specific cargo proteins by the Golgi tether component TBC1D23” (Science Advances, 2024).

B1: syntaxin-16 (209–221) peptide (peptide, UniProt O14662 209-221, looked up)
peptide: DDNTLYHRGFTED
notes: syntaxin-16, human, residues 209 to 221, beginning 209DDNTLY (T212, L213, Y214, R216); also called syntaxin-16 peptide; wild type; source: peptide
B2: syntaxin-16 peptide Y214F (peptide, UniProt O14662 209-221, looked up)
peptide: DDNTLFHRGFTED
notes: syntaxin-16, human, peptide 209 to 221 as m28; source: peptide
B3: syntaxin-16 peptide Y214W (peptide, UniProt O14662 209-221, looked up)
peptide: DDNTLWHRGFTED
notes: as for B2
B4: syntaxin-16 peptide T212S (peptide, UniProt O14662 209-221, looked up)
peptide: DDNSLYHRGFTED
notes: as for B2
B5: syntaxin-16 peptide L213A (peptide)
peptide: DDNTAYHRGFTED
notes: syntaxin-16, human, residues 209-221 with L213A
B6: syntaxin-16 peptide Y214F (peptide)
peptide: DDNTLFHRGFTED
notes: syntaxin-16, human, residues 209-221 with Y214F
B7: syntaxin-16 peptide L213F (peptide)
peptide: DDNTFYHRGFTED
notes: syntaxin-16, human, residues 209-221 with L213F
B8: syntaxin-16 peptide Y214W (peptide)
peptide: DDNTLWHRGFTED
notes: syntaxin-16, human, residues 209-221 with Y214W
B9: syntaxin-16 peptide T212S (peptide)
peptide: DDNSLYHRGFTED
notes: syntaxin-16, human, residues 209-221 with T212S

Assays:
Conditions in all cases: both partners purified
[1] = molecular target: T1, TBC1D23 C-terminal domain K672A (mouse, UniProt Q8K0F1 559-677, K672A); assay: ITC; peptide (0.8 to 5 mM) titrated into 100 μM TBC1D23 C-terminal domain, 20°C, 100 mM NaCl, 100 mM tris pH 7.4, 1 mM TCEP, Nano ITC
T1 construct: TBC1D23, mouse, UniProt Q8K0F1, C-terminal domain (limits as m7, in data S3); source: E. coli BL21 plyS, purified (glutathione-Sepharose, GST cleaved with thrombin, Superdex 200)
T1 sequence (Q8K0F1 559-677 K672A): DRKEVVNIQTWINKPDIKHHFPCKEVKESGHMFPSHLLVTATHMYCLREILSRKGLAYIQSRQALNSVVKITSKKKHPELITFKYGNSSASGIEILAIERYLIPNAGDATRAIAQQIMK

[2] = molecular target: T2, TBC1D23 C-terminal domain (mouse, UniProt Q8K0F1 559-684); assay: as above
T2 construct: TBC1D23, mouse, UniProt Q8K0F1, C-terminal domain ending with VLDALES at residue 684; used for ITC and for the 3.3 Å crystals; also called the C-terminal domain; TBC1D23 full-length C-terminal domain; source: E. coli BL21 plyS, purified (glutathione-Sepharose, GST cleaved with thrombin, Superdex 200)
T2 sequence (Q8K0F1 559-684): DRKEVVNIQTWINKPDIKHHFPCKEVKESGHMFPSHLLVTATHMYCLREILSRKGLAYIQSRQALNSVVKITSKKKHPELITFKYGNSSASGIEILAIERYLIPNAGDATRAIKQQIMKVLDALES

[3] = molecular target: T3, TBC1D23 C-terminal domain I675W (mouse, UniProt Q8K0F1 559-677, I675W); assay: as above
T3 construct: TBC1D23, mouse, UniProt Q8K0F1, C-terminal domain (limits as m7, in data S3); source: E. coli BL21 plyS, purified (glutathione-Sepharose, GST cleaved with thrombin, Superdex 200)
T3 sequence (Q8K0F1 559-677 I675W): as the sequence (Q8K0F1 559-677 K672A) above, with A114K, I117W counted along it

[4] = molecular target: T4, Mouse TBC1D23 (559-684), C-terminal domain (mouse, UniProt Q8K0F1 559-684); assay: ITC; peptide (0.8 to 5 mM) titrated into 100 uM TBC1D23 C-terminal domain, 20 injections of 2.4 ul; 20°C; 100 mM NaCl, 100 mM tris pH 7.4, 1 mM TCEP; mean of three runs
T4 construct: TBC1D23, mouse, UniProt Q8K0F1 (684 residues), C-terminal domain, residues 559-684; also called TBC1D23 C-terminal domain; TBC1D23 full length C-terminal domain; source: E. coli BL21 plyS, purified (glutathione-Sepharose, thrombin cleavage, Superdex 200 gel filtration)
T4 sequence (Q8K0F1 559-684): as the sequence (Q8K0F1 559-684) above

| Binder | Kd [2] [µM] | Kd [4] [µM] | further results |
| --- | --- | --- | --- |
| B1 | ~1.4 | – | Kd [1]: ~30 µM; stoichiometry N [2]: 1; Kd [3]: > 300 µM |
| B2 | ~15 | – | – |
| B3 | ~7 | – | – |
| B4 | ~30 | – | – |
| B5 | – | > 200 | – |
| B6 | – | 15.5 | – |
| B7 | – | 150 | – |
| B8 | – | 5.6 | – |
| B9 | – | 30.1 | – |
